Substitutions are numbered along the chain they refer to. Names and notes keep the numbering of the source.

Substrate in data set [1]: CC(=O)N[C@H]1[C@@H](OP(=O)(O)OP(=O)(O)OC[C@H]2O[C@@H](n3ccc(=O)[nH]c3=O)[C@H](O)[C@@H]2O)O[C@H](CO)[C@@H](O)[C@@H]1O[C@H](C)C(=O)O
Kind of data set: orthophosphate release with calf intestinal alkaline phosphatase coupling; Michaelis-Menten fit of initial rates. The conditions noted are these: 50 mM Tris pH 8.4, 5 mM MgCl2, 100 nM enzyme, 37°C for the relative activity assay. It counts as biochemical, Streptococcus pneumoniae. The source says:
(§1) orthophosphate release with calf intestinal alkaline phosphatase coupling; Michaelis-Menten fit of initial rates on UDP-X diphosphatase (UDP-Xase), SP_1669

Substrate in data set [2]: CC(=O)N[C@H]1[C@@H](OP(=O)(O)OP(=O)(O)OC[C@H]2O[C@@H](n3ccc(=O)[nH]c3=O)[C@H](O)[C@@H]2O)O[C@H](CO)[C@@H](O)[C@@H]1O[C@H](C)C(=O)N[C@@H](C)C(=O)O
The description is as above. It counts as biochemical, Streptococcus pneumoniae. The conditions noted are these: 50 mM Tris pH 8.4, 5 mM MgCl2, 100 nM enzyme, 37°C for the relative activity assay.
From the text: as §1

Substrate in data set [3]: O=c1ccn([C@@H]2O[C@H](CO[P@@](=O)(O)O[P@@](=O)(O)O[C@H]3O[C@H](CO)[C@@H](O)[C@H](O)[C@H]3O)[C@@H](O)[C@H]2O)c(=O)[nH]1
The data set is described as above. It counts as biochemical, Streptococcus pneumoniae. The settings on record: 50 mM Tris pH 8.4, 5 mM MgCl2, 100 nM enzyme, 37°C for the relative activity assay.
From the text: as §1

Data set [4] deals with the molecule itself. The experiment in a line: SEC; size-exclusion chromatography, data not shown.
Data set [5] deals with the molecule itself. Kind of data set: SAXS; small-angle X-ray scattering of the mutants in solution, 4.5 and 6 mg/mL; ab initio envelopes fitted with the wild-type crystal dimer (PDB 4HFQ).

B1: UDP-X diphosphatase from Streptococcus pneumoniae TIGR4 (SP_1669 gene product), wild type (enzyme, UniProt A0A0H2URA0 1-203, looked up)
chain: MKTSDFVKYLQRMIAITDTGLTFTKDPFDRERYEDLRSLLSEMLNQASDLDSEEVAEVLKPTSAYATPLMDVRAWIVEDEKICLVRGQGEDSWALPGGFGEVGYSPTENILKEIEEETGFKAKVERLLAVFDTNRFQLQSKQYTKFVFGCKLLDGQFQENQEIADLQFFAIDQLPNLSEKRITKEQIELLWQVYQGHRGQYLD
notes: Nudix hydrolase UDP-X diphosphatase encoded by gene SP_1669 of Streptococcus pneumoniae TIGR4; the gene was amplified from genomic DNA with NdeI and BamHI sites at its start and end; the structure describes residues 1-203 (N-terminal domain 1-59, loop 60-68, C-terminal catalytic domain 69-203); No tag is named; also called UDP-Xase; source: E. coli BL21(DE3), pET-24a, purified (ammonium sulfate, …)
With B1, in data set [1], the Michaelis-Menten constant (Km) (in general, the substrate concentration at which the rate is half of its maximum) amounted to 3.6 ± 0.4 mM; the Vmax (as a rule, the top rate of the reaction or transport when substrate is in excess) is 17.7 µM/min; the kcat (in general, the maximal rate divided by the concentration of active sites) was determined as 3 ± 0.1 s⁻¹; the specificity constant (kcat/Km) (as a rule, the turnover number divided by the Michaelis constant) stood at 800 ± 100 M⁻¹ s⁻¹. Besides, in data set [2], the Michaelis-Menten constant (Km) came out at 1.6 ± 0.3 mM, the Vmax stood at 28.3 µM/min, the kcat is 4.7 ± 0.2 s⁻¹ and the catalytic efficiency (kcat/Km) was 2900 ± 700 M⁻¹ s⁻¹. In addition, in data set [3], the Km came to 2.9 ± 1.1 mM, the Vmax was 7 µM/min, the turnover number (kcat) stood at 1.2 ± 0.1 s⁻¹ and the specificity constant (kcat/Km) turned out to be 400 ± 200 M⁻¹ s⁻¹. In data set [4], the stoichiometry N – broadly, a count of units in the complex or per binding partner – turned out to be 2.

B2: UDP-X diphosphatase E113A mutant (enzyme)
chain: B1 chain with E113A
notes: UDP-X diphosphatase encoded by gene SP_1669 of Streptococcus pneumoniae TIGR4, with E113A made by site-directed mutagenesis of the wild-type construct; Same construct as m1 apart from the mutation; also called UDP-Xase E113A; source: E. coli, expressed as the wild type, purified (ammonium sulfate, Phenyl FF, Source Q, Sephacryl S200)
As to B2, in data set [5], the “stoichiometry N” value is 2.

B3: UDP-X diphosphatase E162A mutant (enzyme)
chain: B1 chain with E162A
notes: UDP-X diphosphatase encoded by gene SP_1669 of Streptococcus pneumoniae TIGR4, with E162A made by site-directed mutagenesis of the wild-type construct; Same construct as m1 apart from the mutation; also called UDP-Xase E162A; source: E. coli, expressed as the wild type, purified (ammonium sulfate, Phenyl FF, Source Q, Sephacryl S200)
Turning to B3, in data set [5], the binding result was “binds”.

The record behind these values is article PMC3655063, “A UDP-X Diphosphatase from Streptococcus pneumoniae Hydrolyzes Precursors of Peptidoglycan Biosynthesis” (PLoS ONE, 2013).
